Test results from patent US20150258192A1, “COMPOSITIONS AND METHODS FOR PREVENTING OR TREATING CHRONIC LUNG ALLOGRAFT DYSFUNCTION (CLAD) AND IDIOPATHIC PULMONARY FIBROSIS (IPF)” (priority 2014, published 2015).
No end group written: not given here.

What was measured:
HIPK3(h) = target: T1, HIPK3(h) (Homo sapiens, UniProt Q9H422); test: Kinase Profiling Assay; assay type: biochemical; settings: peptide 100 μM
T1 construct: purchased Millipore
Outline: (§1)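 Kinase inhibition by MK2 inhibitory peptides was profiled radiometrically, with substrate phosphorylation from labeled ATP read by scintillation after capture on a charged filter. Values are relative to 100% activity and measured in duplicate.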

Abl(H396P)(h) = Abl(H396P)(h) (Homo sapiens, UniProt P00519, H396P); test: Kinase Profiling Assay; assay type: biochemical; settings: peptide 100 μM
Outline: as §1

Aurora-A(h) = target: T2, Aurora-A(h) (Homo sapiens, UniProt O14965); test: Kinase Profiling Assay; assay type: biochemical; settings: peptide 100 μM
T2 sequence (O14965 1-403): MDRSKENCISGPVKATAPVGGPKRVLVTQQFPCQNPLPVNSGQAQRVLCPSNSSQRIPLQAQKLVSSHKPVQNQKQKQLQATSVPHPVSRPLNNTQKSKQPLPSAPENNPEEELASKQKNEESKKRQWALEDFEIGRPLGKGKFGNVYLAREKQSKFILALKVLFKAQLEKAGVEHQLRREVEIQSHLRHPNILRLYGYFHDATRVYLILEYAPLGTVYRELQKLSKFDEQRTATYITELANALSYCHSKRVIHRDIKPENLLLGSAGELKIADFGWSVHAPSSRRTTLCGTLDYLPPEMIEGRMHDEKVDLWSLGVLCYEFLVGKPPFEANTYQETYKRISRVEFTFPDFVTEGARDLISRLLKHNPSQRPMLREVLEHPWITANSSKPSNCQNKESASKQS
Outline: as §1

EGFR(T790M)(h) = EGFR(T790M)(h) (Homo sapiens, UniProt P00533, T790M); test: Kinase Profiling Assay; assay type: biochemical; settings: peptide 100 μM
Outline: as §1

Abl(M351T)(h) = Abl(M351T)(h) (Homo sapiens, UniProt P00519, M351T); test: Kinase Profiling Assay; assay type: biochemical; settings: peptide 100 μM
Outline: as §1

Lck(h) = target: T3, Lck(h) (Homo sapiens, UniProt P06239); test: Kinase Profiling Assay; assay type: biochemical; settings: peptide 100 μM
T3 construct: purchased Millipore
Outline: as §1

CK1γ3(h) = CK1γ3(h) (Homo sapiens, UniProt Q9Y6M4); test: Kinase Profiling Assay; assay type: biochemical; settings: peptide 100 μM
Sequence of CK1γ3(h) (Q9Y6M4 whole entry): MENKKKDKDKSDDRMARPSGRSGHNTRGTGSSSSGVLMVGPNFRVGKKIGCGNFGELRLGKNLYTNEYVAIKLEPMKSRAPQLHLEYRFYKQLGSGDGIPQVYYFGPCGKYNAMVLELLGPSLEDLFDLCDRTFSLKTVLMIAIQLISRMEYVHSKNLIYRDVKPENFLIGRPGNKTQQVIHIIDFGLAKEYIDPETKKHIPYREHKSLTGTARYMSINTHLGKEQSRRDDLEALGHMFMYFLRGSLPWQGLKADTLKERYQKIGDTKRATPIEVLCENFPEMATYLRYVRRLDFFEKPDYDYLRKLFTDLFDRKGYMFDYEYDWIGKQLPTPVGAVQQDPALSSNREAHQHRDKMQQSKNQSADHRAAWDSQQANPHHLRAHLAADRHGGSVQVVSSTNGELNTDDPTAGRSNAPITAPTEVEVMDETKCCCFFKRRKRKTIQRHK
Outline: as §1

PAK3(h) = PAK3(h) (Homo sapiens, UniProt O75914); test: Kinase Profiling Assay; assay type: biochemical; settings: peptide 100 μM
Sequence of PAK3(h) (O75914 whole entry): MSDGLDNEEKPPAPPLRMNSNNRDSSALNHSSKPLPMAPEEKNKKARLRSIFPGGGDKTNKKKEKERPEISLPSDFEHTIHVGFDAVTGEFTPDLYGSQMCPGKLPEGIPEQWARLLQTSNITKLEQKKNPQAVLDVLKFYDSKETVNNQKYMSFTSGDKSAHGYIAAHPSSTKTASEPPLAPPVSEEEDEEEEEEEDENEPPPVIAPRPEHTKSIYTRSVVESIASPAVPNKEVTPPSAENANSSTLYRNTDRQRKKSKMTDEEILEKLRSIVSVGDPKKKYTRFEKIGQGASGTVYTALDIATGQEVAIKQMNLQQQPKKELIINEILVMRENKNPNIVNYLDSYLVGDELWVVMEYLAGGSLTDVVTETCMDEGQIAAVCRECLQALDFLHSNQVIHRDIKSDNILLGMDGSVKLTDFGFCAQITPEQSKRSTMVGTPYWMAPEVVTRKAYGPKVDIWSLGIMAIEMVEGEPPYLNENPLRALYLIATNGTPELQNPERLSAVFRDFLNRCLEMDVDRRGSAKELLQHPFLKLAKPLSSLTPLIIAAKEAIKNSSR
Outline: as §1

PDGFRα(D842V)(h) = PDGFRα(D842V)(h) (Homo sapiens, UniProt P16234, D842V); test: Kinase Profiling Assay; assay type: biochemical; settings: peptide 100 μM
Sequence of PDGFRα(D842V)(h) (P16234 24-1089 D842V): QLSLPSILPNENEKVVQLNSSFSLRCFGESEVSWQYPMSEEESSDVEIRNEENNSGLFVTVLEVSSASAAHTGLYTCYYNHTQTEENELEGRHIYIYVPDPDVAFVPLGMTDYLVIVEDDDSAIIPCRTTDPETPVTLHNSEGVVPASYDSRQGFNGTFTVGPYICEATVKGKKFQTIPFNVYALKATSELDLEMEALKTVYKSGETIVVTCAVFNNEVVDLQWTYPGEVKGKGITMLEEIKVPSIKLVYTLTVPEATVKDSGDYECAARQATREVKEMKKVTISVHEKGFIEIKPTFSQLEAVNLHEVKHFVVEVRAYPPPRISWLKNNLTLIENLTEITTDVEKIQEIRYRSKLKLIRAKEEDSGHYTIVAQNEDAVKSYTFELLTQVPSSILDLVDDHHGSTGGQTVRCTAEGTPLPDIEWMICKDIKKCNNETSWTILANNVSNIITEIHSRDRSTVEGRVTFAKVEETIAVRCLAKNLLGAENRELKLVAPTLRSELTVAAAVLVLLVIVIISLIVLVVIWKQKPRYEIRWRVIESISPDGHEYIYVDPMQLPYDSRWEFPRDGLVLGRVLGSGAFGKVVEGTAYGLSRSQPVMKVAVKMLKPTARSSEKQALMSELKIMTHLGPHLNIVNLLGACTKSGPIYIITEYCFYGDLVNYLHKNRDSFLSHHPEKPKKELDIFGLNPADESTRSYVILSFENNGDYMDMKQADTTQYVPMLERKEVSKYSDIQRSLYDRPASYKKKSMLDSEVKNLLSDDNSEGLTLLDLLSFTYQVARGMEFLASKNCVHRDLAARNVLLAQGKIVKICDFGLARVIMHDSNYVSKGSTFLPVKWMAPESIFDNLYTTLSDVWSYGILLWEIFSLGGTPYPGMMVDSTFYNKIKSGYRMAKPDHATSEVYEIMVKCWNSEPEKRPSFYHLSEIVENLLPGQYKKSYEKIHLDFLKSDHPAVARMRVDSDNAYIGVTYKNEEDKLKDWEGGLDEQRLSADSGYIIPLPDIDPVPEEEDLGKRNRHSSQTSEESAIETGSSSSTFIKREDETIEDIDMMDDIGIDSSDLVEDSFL
Outline: as §1

PAR-1Bα(h) = PAR-1Bα(h) (Homo sapiens, UniProt Q7KZI7); test: Kinase Profiling Assay; assay type: biochemical; settings: peptide 100 μM
Sequence of PAR-1Bα(h) (Q7KZI7 1-725 isoform Q7KZI7-4): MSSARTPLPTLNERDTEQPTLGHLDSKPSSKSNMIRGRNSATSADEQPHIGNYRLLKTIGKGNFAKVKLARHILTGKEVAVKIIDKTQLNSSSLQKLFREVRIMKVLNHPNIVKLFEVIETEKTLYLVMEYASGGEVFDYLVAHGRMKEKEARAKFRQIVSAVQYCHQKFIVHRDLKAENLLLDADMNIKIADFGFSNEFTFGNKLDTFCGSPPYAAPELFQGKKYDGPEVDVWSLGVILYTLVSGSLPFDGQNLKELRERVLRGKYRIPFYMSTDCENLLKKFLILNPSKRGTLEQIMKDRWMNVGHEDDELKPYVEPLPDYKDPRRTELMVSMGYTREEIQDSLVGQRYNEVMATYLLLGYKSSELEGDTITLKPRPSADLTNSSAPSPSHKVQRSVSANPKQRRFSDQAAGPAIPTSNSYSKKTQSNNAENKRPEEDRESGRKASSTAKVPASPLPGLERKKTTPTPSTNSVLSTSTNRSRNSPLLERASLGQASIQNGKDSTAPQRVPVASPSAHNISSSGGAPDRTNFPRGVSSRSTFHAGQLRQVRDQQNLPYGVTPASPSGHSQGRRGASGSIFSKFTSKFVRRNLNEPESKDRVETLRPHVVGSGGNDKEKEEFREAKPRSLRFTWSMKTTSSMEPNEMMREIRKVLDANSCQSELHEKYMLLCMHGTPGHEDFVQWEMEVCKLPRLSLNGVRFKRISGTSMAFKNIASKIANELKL
Outline: as §1

PKA(h) = PKA(h) (Homo sapiens, UniProt P17612); test: Kinase Profiling Assay; assay type: biochemical; settings: peptide 100 μM
Outline: as §1

CK2α2(h) = CK2α2(h) (Homo sapiens, UniProt P19784); test: Kinase Profiling Assay; assay type: biochemical; settings: peptide 100 μM
Sequence of CK2α2(h) (P19784 whole entry): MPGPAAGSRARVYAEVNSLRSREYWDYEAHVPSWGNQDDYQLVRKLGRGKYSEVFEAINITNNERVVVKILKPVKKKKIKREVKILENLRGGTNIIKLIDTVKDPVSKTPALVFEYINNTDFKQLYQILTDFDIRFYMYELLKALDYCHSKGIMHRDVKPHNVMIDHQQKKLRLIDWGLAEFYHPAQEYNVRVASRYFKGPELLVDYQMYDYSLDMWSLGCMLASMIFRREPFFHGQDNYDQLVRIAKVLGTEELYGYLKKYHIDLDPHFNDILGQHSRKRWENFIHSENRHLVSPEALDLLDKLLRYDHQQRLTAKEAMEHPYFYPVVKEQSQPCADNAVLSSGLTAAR
Outline: as §1

IGF-1R(h) = target: T4, IGF-1R(h) (Homo sapiens, UniProt P08069); test: Kinase Profiling Assay; assay type: biochemical; settings: peptide 100 μM
T4 construct: purchased Millipore
Outline: as §1

GRK5(h) = target: T5, GRK5(h) (Homo sapiens, UniProt P34947); test: Kinase Profiling Assay; assay type: biochemical; settings: peptide 100 μM
T5 construct: purchased Millipore
T5 sequence (P34947 whole entry): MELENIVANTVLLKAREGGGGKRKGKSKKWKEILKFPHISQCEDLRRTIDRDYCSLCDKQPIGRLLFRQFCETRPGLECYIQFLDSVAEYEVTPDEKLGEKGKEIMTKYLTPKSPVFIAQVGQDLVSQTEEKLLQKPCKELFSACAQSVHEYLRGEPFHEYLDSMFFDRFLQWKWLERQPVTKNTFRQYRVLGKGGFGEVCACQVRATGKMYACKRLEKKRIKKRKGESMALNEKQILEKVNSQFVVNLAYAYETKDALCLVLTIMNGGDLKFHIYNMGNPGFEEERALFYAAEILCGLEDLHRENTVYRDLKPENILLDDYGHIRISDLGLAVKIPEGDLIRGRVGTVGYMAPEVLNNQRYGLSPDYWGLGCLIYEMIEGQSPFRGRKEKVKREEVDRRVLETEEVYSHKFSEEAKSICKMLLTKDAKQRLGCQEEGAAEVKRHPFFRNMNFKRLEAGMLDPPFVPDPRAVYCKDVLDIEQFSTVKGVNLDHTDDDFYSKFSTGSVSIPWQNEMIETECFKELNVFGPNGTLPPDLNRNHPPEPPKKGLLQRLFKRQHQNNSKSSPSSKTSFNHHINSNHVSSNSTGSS
Outline: as §1

Tie2(R849W)(h) = Tie2(R849W)(h) (Homo sapiens, UniProt Q02763, R849W); test: Kinase Profiling Assay; assay type: biochemical; settings: peptide 100 μM
Sequence of Tie2(R849W)(h) (Q02763 23-1124 R849W): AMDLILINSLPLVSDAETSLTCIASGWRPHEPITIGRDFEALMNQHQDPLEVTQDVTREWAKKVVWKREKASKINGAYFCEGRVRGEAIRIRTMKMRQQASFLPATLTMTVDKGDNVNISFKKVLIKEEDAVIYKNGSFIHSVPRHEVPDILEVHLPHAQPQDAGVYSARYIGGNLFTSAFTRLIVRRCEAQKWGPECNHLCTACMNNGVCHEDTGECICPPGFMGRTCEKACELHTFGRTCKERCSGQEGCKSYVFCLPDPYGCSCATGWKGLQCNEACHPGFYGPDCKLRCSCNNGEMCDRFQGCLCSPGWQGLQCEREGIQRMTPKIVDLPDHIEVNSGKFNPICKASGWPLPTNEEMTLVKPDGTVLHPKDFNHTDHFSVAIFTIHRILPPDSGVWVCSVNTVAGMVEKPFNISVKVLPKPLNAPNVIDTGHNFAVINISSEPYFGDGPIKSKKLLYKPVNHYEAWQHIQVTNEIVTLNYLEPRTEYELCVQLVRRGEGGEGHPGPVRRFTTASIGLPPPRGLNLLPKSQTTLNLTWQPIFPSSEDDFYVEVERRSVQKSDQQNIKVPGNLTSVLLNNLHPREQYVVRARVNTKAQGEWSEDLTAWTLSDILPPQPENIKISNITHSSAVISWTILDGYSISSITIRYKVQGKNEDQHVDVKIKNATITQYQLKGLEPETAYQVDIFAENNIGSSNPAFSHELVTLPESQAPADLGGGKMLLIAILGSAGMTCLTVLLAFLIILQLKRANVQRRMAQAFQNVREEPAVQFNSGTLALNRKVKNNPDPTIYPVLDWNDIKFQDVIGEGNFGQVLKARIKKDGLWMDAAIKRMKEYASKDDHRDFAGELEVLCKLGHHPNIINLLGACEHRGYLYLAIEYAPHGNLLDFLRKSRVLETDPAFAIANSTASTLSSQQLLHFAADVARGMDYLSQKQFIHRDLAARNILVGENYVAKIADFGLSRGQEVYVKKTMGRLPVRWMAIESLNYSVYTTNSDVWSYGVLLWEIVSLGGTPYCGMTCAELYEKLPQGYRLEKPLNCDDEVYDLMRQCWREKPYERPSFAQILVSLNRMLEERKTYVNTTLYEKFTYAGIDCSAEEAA
Outline: as §1

[1] = tested on: normal human fetal lung fibroblasts (IMR-90); test: TGF-β-induced myofibroblast activation (α-SMA immunoblot); assay type: cell-based; settings: pre-treated 1 h, TGF-β1 (2 ng/ml) 48 h
Excerpt: Cell lysates were immunoblotted against antibodies for α-SMA (a marker for myofibroblast activation) and GAPDH (loading control).

[2] = tested on: bleomycin-induced lung fibrosis in C57BL/6 mice; test: Bleomycin mouse model of pulmonary fibrosis (IPF prevention model); assay type: in vivo; settings: for collagen levels in the lung (Masson's blue trichrome), dose-response: 25, 50 or 75 μg/kg daily IP, day 7-21; for collagen accumulation in the lungs (Masson's Trichrome staining) / development of fibrotic loci formation (H&E staining): daily day 7-21 post bleomycin; for total collagen deposition (from hydroxyproline) vs bleomycin control: post-inflammatory/pre-fibrotic stage
Protocol: A mouse model of pulmonary fibrosis was generated by administering 0.025 U of bleomycin/PBS intratracheally to C57BL/6 mice. […] At 21 day post bleomycin delivery (for prevention model) or 28 post bleomycin delivery (for treatment model), groups of mice were sacrificed with a sodium pentobarbital injection (120 mg/kg) and the chest cavity was opened. The right mainstem bronchus was ligated and the right lung was removed. The trachea was cannulated and the left lung was perfused with 4% formaldehyde at 21 cm H2O pressure. The tissue blocks then were embedded in paraffin, and […] sections were prepared for staining. Sections from each animal were stained with hematoxylin and eosin (H&E) to visualize cells or with Masson's Trichrome staining to highlight collagen deposition. […] Stained sections were mounted onto a labeled glass slide with organic mounting medium.
Briefly, fibrotic loci in the lungs of the mice were induced by delivering intratracheally about 0.025 U of bleomycin (dissolved in PBS) to C57BL/6 mice. […] Briefly, mice were sacrificed with a sodium pentobarbital injection (120 mg/kg) and the chest cavity was opened. The right mainstem bronchus was ligated and the right lung was removed. The trachea was cannulated and the left lung was perfused with 4% formaldehyde at 21 cm H2O pressure. The tissue blocks then were embedded in paraffin, and […] sections were prepared, and stained with hematoxylin and eosin (H&E; for pathological examination) or Masson's Trichrome (for collagen staining)
Next, total collagen levels in the lungs of the bleomycin-injured mice (FIG. 12) were analyzed quantitatively by computing a constant conversion factor (7.5) for collagen from hydroxyproline concentrations (Neuman R. and Logan M, J Biol Chem., 186(2):549-56, 1950, incorporated by reference).
Next, the effect of increasing doses of MK2 peptide inhibitors on collagen deposition was examined in vivo using the bleomycin mouse model of idiopathic pulmonary fibrosis (prevention model). Briefly, C57-BL/6 mice were subjected to bleomycin injury at day 0.

[3] = tested on: human fetal lung fibroblasts (IMR-90); test: TGF-β-mediated fibronectin expression; assay type: cell-based; settings: pre-treated 1 h, TGF-β1 (2 ng/ml) 72 h, conditioned media
Protocol: Fibronection was measured as secreted fragments in the conditioned media. Equal amounts (14 μg) of total proteins from the conditioned media were loaded in each lane.

| Sequence | % activity (HIPK3(h)) | % activity (Abl(H396P)(h)) | % activity (Aurora-A(h)) | % activity (EGFR(T790M)(h)) | % activity (Abl(M351T)(h)) | % activity (Lck(h)) | % activity (CK1γ3(h)) | % activity (PAK3(h)) | % activity (PDGFRα(D842V)(h)) | % activity (PAR-1Bα(h)) | % activity (PKA(h)) | % activity (CK2α2(h)) | % activity (IGF-1R(h)) | % activity (GRK5(h)) | % activity (Tie2(R849W)(h)) | protein level of α-smooth muscle actin (α-SMA) [1] | collagen levels in the lung (Masson's blue trichrome), dose-response [2] | protein level of fibronectin [3] | also measured |
| --- | --- | --- | --- | --- | --- | --- | --- | --- | --- | --- | --- | --- | --- | --- | --- | --- | --- | --- | --- |
| FAKLAARLYRKALARQLGVAA [MMI-0300] | 93% | 101% | 92% | 100% | 90% | -2% | 125% | 140% | – | – | – | – | – | – | – | – | – | – | – |
| HRRIKAWLKKIKALARQLGVAA (Mammal) [MMI-0500] | 85% | 51% | 110% | 70% | 61% | 359% | – | – | 170% | 97% | 118% | – | – | – | – | – | – | – | – |
| KAFAKLAARLYRKALARQLGVAA [MMI-0400] | – | – | – | – | – | – | – | – | 118% | – | – | 96% | 90% | 131% | 108% | – | – | – | – |
| YARAAARQARAKALARQLGVAA [MMI-0100] | – | – | – | – | – | – | – | – | – | – | – | – | – | – | – | decreases | a decrease in collagen levels | decreases | collagen accumulation in the lungs (Masson's Trichrome staining) ([2]; intraperitoneally): reduced collagen accumulation; development of fibrotic loci formation (H&E staining) ([2]; intraperitoneally): significantly reduced; total collagen deposition (from hydroxyproline) vs bleomycin control ([2]; nebulized): significantly decreased; total collagen deposition (from hydroxyproline) vs bleomycin control ([2]; systemic (IP)): significantly decreased; collagen accumulation in the lungs (Masson's Trichrome staining) ([2]; via nebulization): reduced collagen accumulation; development of fibrotic loci formation (H&E staining) ([2]; via nebulization): significantly reduced |
| YARAAARQARAKALNRQLGVA (Mammal) [MMI-0200] | – | – | – | – | – | – | 96% | 50% | – | 110% | 110% | 88% | 49% | 135% | 89% | no changes | did not reduce, but rather increased | no changes | – |
